# Experimental data reported in patent US20140274782A1 (Stanford University, published 2014).
# T1: SSR4-signal sequence receptor, delta (translocon-associated protein delta) (SSR4) (human, UniProt P51571 24-173, limits assumed)
# T1 sequence (looked up): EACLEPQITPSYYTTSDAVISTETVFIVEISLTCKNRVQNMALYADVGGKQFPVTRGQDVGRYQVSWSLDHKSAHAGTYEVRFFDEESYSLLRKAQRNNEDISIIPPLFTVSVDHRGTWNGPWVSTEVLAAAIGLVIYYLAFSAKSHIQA
# T2: Magmas-mitochondria-associated protein involved in granulocyte-macrophage colony-stimulating factor signal … (human, UniProt Q9Y3D7 1-125)
# T2 sequence (looked up): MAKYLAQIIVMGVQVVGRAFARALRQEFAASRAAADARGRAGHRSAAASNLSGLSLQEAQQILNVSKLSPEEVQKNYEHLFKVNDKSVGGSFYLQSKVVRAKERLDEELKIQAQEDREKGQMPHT
# T3: CDK5RAP3-CDK5 regulatory subunit-associated protein 3 (human, UniProt Q96JB5 1-506, limits assumed)
# T3 sequence (looked up): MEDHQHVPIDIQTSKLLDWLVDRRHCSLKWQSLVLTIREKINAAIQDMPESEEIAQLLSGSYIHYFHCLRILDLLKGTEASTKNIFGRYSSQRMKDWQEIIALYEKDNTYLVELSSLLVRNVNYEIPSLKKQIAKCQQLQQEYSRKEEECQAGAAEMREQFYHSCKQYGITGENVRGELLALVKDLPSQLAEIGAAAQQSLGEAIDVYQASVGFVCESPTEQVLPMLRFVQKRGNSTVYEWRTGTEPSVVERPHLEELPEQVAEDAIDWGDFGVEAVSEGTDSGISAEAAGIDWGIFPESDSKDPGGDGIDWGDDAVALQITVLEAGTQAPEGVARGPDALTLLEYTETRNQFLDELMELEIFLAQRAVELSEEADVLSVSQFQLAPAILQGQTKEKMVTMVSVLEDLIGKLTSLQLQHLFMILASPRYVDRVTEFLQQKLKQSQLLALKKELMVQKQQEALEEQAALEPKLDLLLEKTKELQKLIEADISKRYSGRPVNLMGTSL
# T4: RDH11-retinol dehydrogenase 11 (all-trans/9-cis/11-cis) (RDH11) (human, UniProt Q8TC12 1-318, limits assumed)
# T4 sequence (looked up): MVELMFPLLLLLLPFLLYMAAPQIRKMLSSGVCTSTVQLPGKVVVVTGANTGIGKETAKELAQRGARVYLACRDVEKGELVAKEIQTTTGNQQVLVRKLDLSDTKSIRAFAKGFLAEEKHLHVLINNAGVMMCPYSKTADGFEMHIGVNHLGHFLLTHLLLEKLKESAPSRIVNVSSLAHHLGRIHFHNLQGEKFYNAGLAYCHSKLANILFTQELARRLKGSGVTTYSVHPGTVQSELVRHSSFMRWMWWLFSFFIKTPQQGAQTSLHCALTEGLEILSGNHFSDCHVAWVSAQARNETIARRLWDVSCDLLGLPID
# T5: SMYD5-SMYD family member 5 (SMYD5) (human, UniProt Q6GMV2 1-418)
# T5 sequence (looked up): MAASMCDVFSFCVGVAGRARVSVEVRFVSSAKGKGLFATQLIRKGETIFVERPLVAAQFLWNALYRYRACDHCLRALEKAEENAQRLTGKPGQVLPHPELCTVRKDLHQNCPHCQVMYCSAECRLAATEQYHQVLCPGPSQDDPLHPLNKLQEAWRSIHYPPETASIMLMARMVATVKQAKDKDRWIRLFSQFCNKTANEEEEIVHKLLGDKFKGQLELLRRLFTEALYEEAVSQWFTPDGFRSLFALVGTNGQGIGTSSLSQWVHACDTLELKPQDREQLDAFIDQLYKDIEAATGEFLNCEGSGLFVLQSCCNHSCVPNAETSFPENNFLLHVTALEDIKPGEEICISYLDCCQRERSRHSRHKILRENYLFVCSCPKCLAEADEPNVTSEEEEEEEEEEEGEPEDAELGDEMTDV
# T6: FKBP14-FK506 binding protein 14, 22 kDa (FKBP14) (human, UniProt Q9NWM8 20-211)
# T6 sequence (looked up): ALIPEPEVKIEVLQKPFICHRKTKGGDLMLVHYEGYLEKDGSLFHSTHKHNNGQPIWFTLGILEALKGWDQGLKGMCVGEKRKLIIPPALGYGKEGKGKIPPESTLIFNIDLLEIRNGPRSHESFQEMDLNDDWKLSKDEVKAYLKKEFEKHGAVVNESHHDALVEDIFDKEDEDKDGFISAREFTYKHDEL
# T7: SMYD3-SET and MYND domain containing 3 (SMYD3) (human, UniProt Q9H7B4 1-428, limits assumed)
# T7 sequence (looked up): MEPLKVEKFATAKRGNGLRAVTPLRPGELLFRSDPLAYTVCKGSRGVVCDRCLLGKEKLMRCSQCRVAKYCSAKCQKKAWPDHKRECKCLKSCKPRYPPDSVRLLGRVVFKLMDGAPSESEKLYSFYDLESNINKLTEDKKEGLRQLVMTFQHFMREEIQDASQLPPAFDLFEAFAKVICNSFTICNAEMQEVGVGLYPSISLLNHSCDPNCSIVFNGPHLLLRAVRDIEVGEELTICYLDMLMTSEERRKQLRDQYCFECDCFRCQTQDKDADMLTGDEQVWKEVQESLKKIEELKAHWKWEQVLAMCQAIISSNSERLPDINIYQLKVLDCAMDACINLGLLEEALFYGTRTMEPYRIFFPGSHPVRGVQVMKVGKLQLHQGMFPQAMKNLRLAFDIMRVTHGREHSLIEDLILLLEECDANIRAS
# T8: BLCAP-bladder cancer associated protein (BLCAP) (human, UniProt P62952 1-87)
# T8 sequence (looked up): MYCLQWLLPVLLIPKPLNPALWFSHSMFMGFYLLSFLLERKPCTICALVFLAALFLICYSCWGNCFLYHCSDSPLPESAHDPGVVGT
# T9: LTC4S-Leukotriene C4 synthase (human, UniProt Q16873 1-150)
# T9 sequence (looked up): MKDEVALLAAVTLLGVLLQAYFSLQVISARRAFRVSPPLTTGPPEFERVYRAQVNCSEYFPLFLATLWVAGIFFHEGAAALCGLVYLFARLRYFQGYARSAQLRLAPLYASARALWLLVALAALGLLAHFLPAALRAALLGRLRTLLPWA
# Legend:
# Assay in all cases: ProtoArray, GST-treated control array;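 note: human protein microarray (about 9500 recombinant proteins) incubated overnight with GST alone plus SAM cofactor as the negative control for G9a SET domain methylation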
# [1] = target: T1, SSR4-signal sequence receptor, delta …
# [2] = target: T2, Magmas-mitochondria-associated protein …
# [3] = target: T3, CDK5RAP3-CDK5 regulatory …
# [4] = target: T4, RDH11-retinol dehydrogenase 11 …
# [5] = target: T5, SMYD5-SMYD family member 5 (SMYD5)
# [6] = target: T6, FKBP14-FK506 binding protein 14, 22 kDa …
# [7] = target: T7, SMYD3-SET and MYND domain containing 3 …
# [8] = target: T8, BLCAP-bladder cancer associated protein …
# [9] = target: T9, LTC4S-Leukotriene C4 synthase
binder,measurement,setting,value
"3× Flag-3×MBT (designed binder, also called Flag-tagged 3×MBT; 3xFlag-3xMBT; not shown: made by PreScission cleavage of GST-3× Flag-3×MBT) EEWSSSQPATGEKKECWSWESYLEEQKAITAPVSLFQDSQAVTHNKNGFKLGMKLEGIDPQHPSMYFILTVAEVCGYRLRLHFDGYSECHDFWVNANSPDIHPAGWFEKTGHKLQPPKGYKEEEFSWSQYLRSTRAQAAPKHLFVSQSHSPPPLGFQVGMKLEAVDRMNPSLVCVASVTDVVDSRFLVHFDNWDDTYDYWCDPSSPYIHPVGWCQKQGKPLTPPQDYPDPDNFCWEKYLEETGASAVPTWAFKVRPPHSFLVNMKLEAVDRRNPALIRVASVEDVEDHRIKIHFDGWSHGYDFWIDADHPDIHPAGWCSKTGHPLQPPLGPREPSSASPGG",GST Average SNR,[1],1.33
same,GST Average SNR,[2],-1.16
same,GST Average SNR,[3],-0.34
same,GST Average SNR,[4],0.0685
same,GST Average SNR,[5],1.16
same,GST Average SNR,[6],1.24
same,GST Average SNR,[7],1.3
same,GST Average SNR,[8],0.932
same,GST Average SNR,[9],1.21
